Test results reported in US20070111259A1 (BIOSITE, published 2007).

T1: biotinylated interleukin 8 (IL8-biotin) (human, UniProt P10145 21-99, reacted with biotin-XX-NHS ester (1 mM); labelled residues not stated)
T1 construct: mature; also called IL-8 labeled with biotin; biotinylated IL-8
T1 sequence: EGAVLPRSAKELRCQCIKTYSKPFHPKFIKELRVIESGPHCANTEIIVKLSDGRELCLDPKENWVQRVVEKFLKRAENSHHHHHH


Experiments:
[1] = biological target: T1, biotinylated interleukin 8 (IL8-biotin); test: fraction of Fab bound by a large excess of biotin-IL-8, removed on avidin magnetic latex
[2] = biological target: T1, biotinylated interleukin 8 (IL8-biotin); test: solution equilibrium with 1e-10 M biotin-IL-8, B/F vs B plot, free Fab by sandwich ELISA
Method: The equilibrium binding constants of individual monoclonal antibodies were determined by analysis of the total and free antibody concentrations after a binding equilibrium was established in the presence of biotinylated IL-8 at 10⁻¹⁰ M in a 1% solution of bovine serum albumin buffered at pH 8.0. […] The supernatant solution was removed from the microtiter wells containing the magnetic particles and the antibody concentration was determined. The concentration of total antibody added to the individual wells was determined by quantifying the antibody in a sample that was not mixed with IL-8. […] When determining the concentration of total antibody in an equilibrium mixture, the antibody concentration is the amount of total antibody in the mixture determined from the assay described below multiplied by the immunoreactive fraction. Similarly, when calculating the free antibody in an equilibrium mixture after the removal of IL-8, the non-immunoreactive fraction of antibody is subtracted from the free antibody concentration determined by the assay described below. The bound fraction, B, is determined by subtracting the free immunoreactive antibody concentration in the mixture, F, from the total immunoreactive antibody concentration in the mixture. […]

| % Immunoreactive Protein [1] | Ka [2] | Binder |
| --- | --- | --- |
| 90% | – | M1-10 (Fab, also called M1_10H; M1_10L) heavy: QVQLVQSGGGLVHPGGSLRLSCEGSGFIFRNHPIHWVRQAPGKGLEWVSVSGIGGDTYYADSVKGRFSISRDNAKNSLYLQMNSLRAEDMAVYYCAREYYYGSGSYRVDYYYYGMDVWGQGTTVTVSSASTKGPSVFPLAPSSKSTSGGTAALGCLVKDYFPEPVTVSWNSGALTSGVHTFPAVLQSSGLYSLSSVVTVPSSSLGTQTYICNVNHKPSNTKVDKKAEPKSHHHHHH light: not shown |
| 67% | 6.6e+10 M⁻¹ | M1-21 (Fab, also called M1_21H; M1_21L) heavy: QVQLVQSGGGVVQPGKSLRLSCAASGFTFSYYGMHWVRQVPGKGLEWVAAVWYDGSTTYSPDSVKGRFTISRDDSKNTLYLQMSSLRAEDTAVYYCARDRVGLFDYWGQGTLVTVSSASTKGPSVFPLAPSSKSTSGGTAALGCLVKDYFPEPVTVSWNSGALTSGVHTFPAVLQSSGLYSLSSVVTVPSSSLGTQTYICNVNHKPSNTKVDKKAEPKSHHHHHH light: not shown |
